Measurements from the supplement of paper PMC9732359.
± gives the uncertainty stated by the source.

Test: protein stability index of a GFP-peptide fusion (yeast GPS) (PSI 1-4); higher = more stable; sorted into four equal gates, so the index is relative within each strain
How it was run: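 The protein stability index of a peptide was calculated by multiplying its read frequency in each gate by that gate's number and adding the products. The peptides were tiled 17-residue stretches of yeast proteins, fused downstream of GFP on a Cherry-expressing plasmid and carried in yeast as a pooled library. Mid-log cultures in leucine-free medium were sorted into four equal gates by GFP/Cherry ratio, and each gate's plasmids were PCR-amplified and Illumina-sequenced.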

Row | Sequence | protein stability index (doa10∆) | protein stability index (pdr5∆) | protein stability index (san1∆) | protein stability index (ubr1∆)
1 | GKLVESEDSMNVQLRDV [SMD3] | 3.26 ± 0.14 | 3.32 ± 0.1 | 3.33 ± 0.065 | 3.26 ± 0.041
2 | LITQLDGFDPRGNIKVM [RPT1] |  | 3.31 ± 0.22 | 3.15 ± 0.09 | 3.32 ± 0.21
3 | WCCRSGSAADTQAIADI [PRE3] | 2.89 ± 0.12 | 3.03 ± 0.099 | 2.85 ± 0.11 | 2.93 ± 0.077
4 | NFLRLPASNILRRTTQR [YDL116W/NUP84] | 3.08 ± 0.27 |  | 3.25 ± 0.13 | 
5 | FSGKGVHKLRHYLVNLT [GRR1] | 1.28 ± 0.037 | 1.44 ± 0.034 | 1.39 ± 0.07 | 1.45 ± 0.029
6 | AFRTIESKSDDNSATSY [RRI1] | 3.06 ± 0.079 | 3.26 ± 0.079 | 3.15 ± 0.053 | 3.34 ± 0.091
7 | TGPKQQEITTNLENHFK [SCL1] | 2.94 ± 0.044 | 2.97 ± 0.037 | 3.04 ± 0.032 | 2.9 ± 0.03
8 | VPKSIAKTLTYPEVVTP [RPO21] | 2.51 ± 0.05 | 2.76 ± 0.044 | 2.39 ± 0.039 | 2.62 ± 0.047
9 | HLLYPPHIIAVACLFIT [SSN8] | 1.26 ± 0.053 | 1.27 ± 0.038 | 1.32 ± 0.1 | 1.34 ± 0.052
10 | VDVAIPCNNRGKHSIGL [RPS0A] | 2.81 ± 0.096 | 2.91 ± 0.1 | 3.09 ± 0.067 | 3.07 ± 0.11
11 | FLRTMKLTSEETVFNYR [GRR1] | 3.11 ± 0.066 | 2.81 ± 0.067 | 3 ± 0.06 | 3.02 ± 0.052
12 | DERIEKELNTERQIFLE [CDC53] | 2.9 ± 0.1 | 3.09 ± 0.12 | 3.13 ± 0.097 | 3.12 ± 0.086
13 | LQQKHELDTASRILKAQ [YGR119C/NUP57] | 2.73 ± 0.045 | 2.83 ± 0.046 | 2.53 ± 0.052 | 3.03 ± 0.034
14 | LDMELAELDPSLRTPIA [SEC65] | 3.34 ± 0.14 | 3.26 ± 0.092 | 3.08 ± 0.081 | 3.06 ± 0.076
15 | TLETIEIHPITFPPEVL [RRP43] | 1.9 ± 0.045 | 2.25 ± 0.045 | 2.3 ± 0.06 | 2.01 ± 0.035
16 | KEPPRDRKKDKNVKHSG [RPL12A] | 3.29 ± 0.09 | 3.12 ± 0.084 | 3.22 ± 0.067 | 3.17 ± 0.061
17 | REDLNKAEYVDQYDAER [RPO31] | 3.15 ± 0.1 | 3.11 ± 0.11 | 3.33 ± 0.092 | 3.34 ± 0.083
18 | QQRKQKKNRDKKIFGTG [RPS24A] | 3.17 ± 0.093 | 3.14 ± 0.055 | 3.25 ± 0.035 | 3.06 ± 0.067
19 | IFNFDQLVEITEQIKMR [SRB8] | 1.59 ± 0.1 | 1.6 ± 0.082 | 1.66 ± 0.14 | 1.48 ± 0.057
20 | TLDREYITLKATFLKDD [QCR2] | 1.38 ± 0.065 | 1.44 ± 0.045 | 1.51 ± 0.1 | 1.5 ± 0.048
21 | QKGTIGITYRREDMPFT [RPB2] | 3.01 ± 0.1 | 2.68 ± 0.08 | 2.8 ± 0.08 | 2.9 ± 0.069
22 | EILNLSTQELQTRAKLL [RPT5] |  | 2.18 ± 0.18 | 3.04 ± 0.091 | 3.08 ± 0.085
23 | KDLVIVSNLMGRNIGHP [RPB3] | 3.22 ± 0.051 | 3.1 ± 0.05 | 3.18 ± 0.039 | 2.88 ± 0.037
24 | TICIELKTVLHNGRDKI [RGR1] | 1.55 ± 0.051 | 1.62 ± 0.062 | 1.78 ± 0.085 | 1.78 ± 0.067
25 | WLNGKMDSKGKITIGIQ [RGR1] | 3.69 ± 0.12 | 3.47 ± 0.21 |  | 
26 | NIIEKAMDYAISIENIV [RPN12] | 3.15 ± 0.13 | 3.29 ± 0.088 | 2.96 ± 0.094 | 3.07 ± 0.071

Row | Sequence | protein stability index (doa10∆) | protein stability index (pdr5∆) | protein stability index (san1∆) | protein stability index (ubr1∆)
27 | EINTALNTLLVTSADSN [SWI1] | 2.05 ± 0.065 | 2.16 ± 0.048 | 2.38 ± 0.064 | 1.74 ± 0.065
28 | NLPKEGDIVLTRVTRLS [CSL4] | 2.58 ± 0.13 |  | 2.48 ± 0.26 | 
29 | FNAIDLARHLPAELDLR [RPC82] | 2.46 ± 0.09 | 2.56 ± 0.076 | 2.29 ± 0.083 | 2.99 ± 0.11
30 | VAHITTKSPAYPMMHQV [RGR1] | 1.79 ± 0.046 | 1.91 ± 0.054 | 1.85 ± 0.067 | 1.68 ± 0.068
31 | SLKNVTEKNREIYKQLN [YIL149C/MLP2] | 3.31 ± 0.097 | 2.76 ± 0.11 | 3.18 ± 0.056 | 2.99 ± 0.05
32 | ILMGFTLKDNIVVMDCF [RRI1] |  | 1.97 ± 0.084 | 2.74 ± 0.12 | 1.39 ± 0.14
33 | SKKKKNIKKKDTKDALS [RPC53] | 3.3 ± 0.17 | 3.5 ± 0.14 | 3.21 ± 0.089 | 3.3 ± 0.21
34 | TYANVLIPCKYLNRHAD [RPN7] | 1.1 ± 0.08 | 1.25 ± 0.089 | 1.18 ± 0.13 | 1.19 ± 0.095
35 | RSQISEKDAKINKLMEK [SIR4] | 3.13 ± 0.087 | 3.12 ± 0.11 | 3.17 ± 0.062 | 2.27 ± 0.047
36 | PIVLLNTLRKCYPQFAE [UBP6] | 1.25 ± 0.11 | 1.26 ± 0.073 | 1.14 ± 0.16 | 1.19 ± 0.12
37 | EIYYDPDPRSTVIPEDE [RPO21] | 3.04 ± 0.11 | 3.07 ± 0.21 | 3.23 ± 0.14 | 3.06 ± 0.098
38 | RSGALIKFKKCDGDTVW [SSN2] | 2.85 ± 0.053 | 2.9 ± 0.048 | 2.62 ± 0.048 | 2.71 ± 0.043
39 | PAPSIPSTGFKFSLPFE [YLR335W/NUP2] | 2.53 ± 0.1 | 2.94 ± 0.072 | 2.92 ± 0.088 | 3.05 ± 0.086
40 | NPHQDLQAQDRAHRIGQ [SNF2] | 3.03 ± 0.077 | 3.04 ± 0.074 | 2.9 ± 0.07 | 3.19 ± 0.053
41 | YEILLKILITYGSSPKL [SRB8] | 1.27 ± 0.055 | 1.6 ± 0.053 | 1.35 ± 0.092 | 1.47 ± 0.055
42 | DSKMIQDLSRNTLGKGQ [SNU114] | 3.25 ± 0.098 | 3.34 ± 0.11 | 3.34 ± 0.12 | 3.61 ± 0.14
43 | EKPAVKSYASLLAQLNG [RPT3] | 2.8 ± 0.082 | 2.6 ± 0.097 | 2.81 ± 0.082 | 2.76 ± 0.057
44 | IRAIRKVISEILTREVQ [RPS1B] | 1.92 ± 0.07 | 1.65 ± 0.05 | 1.25 ± 0.08 | 1.67 ± 0.14
45 | YRMKGGRVTFIPLNRLS [SMC3] | 1.46 ± 0.14 | 1.15 ± 0.099 | 1.07 ± 0.24 | 1.36 ± 0.13
46 | KDMSPILGELKRVKSYM [LRP1] | 2.43 ± 0.062 | 2.74 ± 0.056 | 2.51 ± 0.059 | 2.97 ± 0.038
47 | SKESWRYDWYQPSKVSS [RTT102] | 2.09 ± 0.097 | 2.33 ± 0.098 | 1.94 ± 0.074 | 1.96 ± 0.036
48 | SPFSITFSVYHESTSRT [YMR129W/POM152] | 2.36 ± 0.11 | 2.55 ± 0.062 | 2.76 ± 0.056 | 2.33 ± 0.06
49 | LQKSSKSMITSEGEQKS [YAR002W/NUP60] | 2.84 ± 0.044 | 2.97 ± 0.047 | 2.85 ± 0.04 | 3.06 ± 0.046
50 | EIPETGEYSVKLLKGAT [FAS2] | 3.18 ± 0.12 | 3.46 ± 0.089 | 3.32 ± 0.049 | 3.35 ± 0.078
51 | RYRVDLLNTDHTLDPSL [RPO21] | 3.09 ± 0.072 | 2.95 ± 0.053 | 2.92 ± 0.05 | 2.9 ± 0.062
52 | TSTITKYKQLLLKDDTY [RPN3] | 2.71 ± 0.12 | 2.73 ± 0.15 | 2.89 ± 0.073 | 2.9 ± 0.084
